{"source": "patent US20150307603A1", "about": "(MODIQUEST B V, published 2015)", "key": {"CFC-1 [1]": {"target": "T1, CFC-1", "T1 construct": "Positive control for anti-citrulline reactivity; also called cfc1 XG; Cfc1-peptide", "experiment": "ELISA, Ab 2 ug/well", "experimental": "(§1) Biotin and citrulline-containing peptides derived from histone 2A were immobilized on NEUTRAVIDIN®-coated 96-well ELISA plates (0.3 μg/well). CFC-1 and CFC-0 were coated at the same concentration and served as positive and negative controls, respectively, for specific anti-citrulline reactivity and as coating controls. Non-coated wells were used to test for aspecific binding of the antibodies. […] Detection of bound anti-citrulline antibodies was performed by incubating the wells with rabbit anti-human HRP (1:2000) for 1 hour at RT followed by incubation with TMB substrate. The resulting OD (y-axis) is a measure for antibody binding."}, "[2]": {"target": "T2, peptide no. 1 (human histone 2A) (human, also: biotin-labelled)", "T2 construct": "also called peptide 1; AAASGXGKQGGK", "T2 peptide": "AAASG[Cit]GKQGGK", "experiment": "ELISA, Ab 2 ug/well", "experimental": "as §1"}, "[3]": {"target": "T3, peptide no. 2 (human histone 2A) (human, also: biotin-labelled)", "T3 construct": "also called peptide 2", "T3 peptide": "AKAKS[Cit]SSRAGL", "experiment": "ELISA, Ab 2 ug/well", "experimental": "as §1"}, "[4]": {"target": "T4, peptide no. 3 (human histone 2A) (human, also: biotin-labelled)", "T4 construct": "also called peptide 3", "T4 peptide": "KSRSS[Cit]AGLQFP", "experiment": "ELISA, Ab 2 ug/well", "experimental": "as §1"}, "[5]": {"target": "T5, peptide no. 4 (human histone 2A) (human, also: biotin-labelled)", "T5 construct": "also called peptide 4", "T5 peptide": "QFPVG[Cit]VHRLLR", "experiment": "ELISA, Ab 2 ug/well", "experimental": "as §1"}, "[6]": {"target": "T6, peptide no. 5 (human histone 2A) (human, also: biotin-labelled)", "T6 construct": "also called peptide 5", "T6 peptide": "VGRVH[Cit]LLRKGN", "experiment": "ELISA, Ab 2 ug/well", "experimental": "as §1"}, "[7]": {"target": "T7, peptide no. 6 (human histone 2A) (human, also: biotin-labelled)", "T7 construct": "also called peptide 6", "T7 peptide": "VHRLL[Cit]KGNYSE", "experiment": "ELISA, Ab 2 ug/well", "experimental": "as §1"}, "[8]": {"target": "T8, peptide no. 7 (human histone 2A) (human, also: biotin-labelled)", "T8 construct": "also called peptide 7", "T8 peptide": "GNYSE[Cit]VGAGAP", "experiment": "ELISA, Ab 2 ug/well", "experimental": "as §1"}, "[9]": {"target": "T9, peptide no. 8 (human histone 2A) (human, also: biotin-labelled)", "T9 construct": "also called peptide 8", "T9 peptide": "AGNAA[Cit]DNKKTR", "experiment": "ELISA, Ab 2 ug/well", "experimental": "as §1"}, "[10]": {"target": "T10, peptide no. 9 (human histone 2A) (human, also: biotin-labelled)", "T10 construct": "also called peptide 9", "T10 peptide": "DNKKT[Cit]IIPRHL", "experiment": "ELISA, Ab 2 ug/well", "experimental": "as §1"}, "[11]": {"target": "T11, peptide no. 10 (human histone 2A) (human, also: biotin-labelled)", "T11 construct": "also called peptide 10", "T11 peptide": "TRIIP[Cit]HLQLAI", "experiment": "ELISA, Ab 2 ug/well", "experimental": "as §1"}, "[12]": {"target": "T12, peptide no. 11 (human histone 2A) (human, also: biotin-labelled)", "T12 construct": "also called peptide 11", "T12 peptide": "LQLAI[Cit]NDEELN", "experiment": "ELISA, Ab 2 ug/well", "experimental": "as §1"}, "[13]": {"target": "T13, peptide no. 12 (human histone 2A) (human, also: biotin-labelled)", "T13 construct": "also called peptide 12", "T13 peptide": "NKLLG[Cit]VTIAQG", "experiment": "ELISA, Ab 2 ug/well", "experimental": "as §1"}, "[14]": {"target": "T14, human recombinant histone 2A (human)", "T14 construct": "Non-deiminated; also called H2A", "experiment": "ELISA, Ab 0.08 ug/well", "description": "(§2) The resulting OD (y-axis) is a measure for antibody binding. H1-recombinant histone 1; H1/p2-huPAD2 recombinant histone 1; H1/p4-huPAD4 recombinant histone 1, and so forth (x-axis)."}, "[15]": {"target": "T15, huPAD4-deiminated human recombinant histone 2B (human)", "T15 construct": "also called H2B/p4", "experiment": "ELISA, Ab 0.08 ug/well", "description": "as §2"}, "[16]": {"target": "T16, huPAD4-deiminated human recombinant histone 3 (human)", "T16 construct": "also called H3/p4", "experiment": "ELISA, Ab 0.08 ug/well", "description": "as §2"}, "CFC-1 [17]": {"target": "T1, CFC-1", "experiment": "ELISA, Ab 0.08 ug/well", "description": "as §2"}, "[18]": {"target": "T17, huPAD2-deiminated human recombinant histone 2A (human)", "T17 construct": "also called H2A/p2; histone 2A/p2", "experiment": "ELISA, Ab 0.0032 ug/well", "description": "as §2"}, "[19]": {"target": "T18, huPAD2-deiminated human recombinant histone 2B (human)", "T18 construct": "also called H2B/p2", "experiment": "ELISA, Ab 0.0032 ug/well", "description": "as §2"}, "[20]": {"target": "T15, huPAD4-deiminated human recombinant …", "experiment": "ELISA, Ab 0.0032 ug/well", "description": "as §2"}, "CFC-1 [21]": {"target": "T1, CFC-1", "experiment": "ELISA, Ab 0.000128 ug/well", "experimental": "as §1, with “fibrinogen and vimentin” for “histone 2A”\n(§3) Biotin-labeled and citrulline-containing fibrinogen and vimentin peptides (Table 5) were also tested for reactivity with the therapeutic antibodies. Peptides were coated on 96-well NEUTRAVIDIN®-ELISA plates."}, "msFibα XH": {"target": "T19, msFibα XH (mouse, X at position 15 = citrulline; biotin-labelled)", "T19 peptide": "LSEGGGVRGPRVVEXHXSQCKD", "experiment": "ELISA, Ab 0.000128 ug/well", "experimental": "as §1, with “fibrinogen and vimentin” for “histone 2A”\nas §3"}, "msFibα XG": {"target": "T20, msFibα XG (mouse, X at position 8 = citrulline; biotin-labelled)", "T20 peptide": "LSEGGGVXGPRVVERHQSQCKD", "experiment": "ELISA, Ab 0.000128 ug/well", "experimental": "as §1, with “fibrinogen and vimentin” for “histone 2A”\nas §3"}, "huFibα XH": {"target": "T21, huFibα XH (human, X at position 15 = citrulline; biotin-labelled)", "T21 peptide": "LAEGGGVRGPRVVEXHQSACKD", "experiment": "ELISA, Ab 0.000128 ug/well", "experimental": "as §1, with “fibrinogen and vimentin” for “histone 2A”\nas §3"}, "huFibα XG": {"target": "T22, huFibα XG (human, X at position 8 = citrulline; biotin-labelled)", "T22 peptide": "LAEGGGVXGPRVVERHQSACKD", "experiment": "ELISA, Ab 0.000128 ug/well", "experimental": "as §1, with “fibrinogen and vimentin” for “histone 2A”\nas §3"}, "msFibβ XG": {"target": "T23, msFibβ XG (mouse, also: biotin-labelled)", "T23 construct": "also called mouse fibrinogen β peptide", "T23 peptide": "EPTDSLDA[Cit]GHRPVDRR", "experiment": "ELISA, Ab 0.000128 ug/well", "experimental": "as §1, with “fibrinogen and vimentin” for “histone 2A”\nas §3"}, "msVim XS/XL": {"target": "T24, msVim XS/XL (mouse, also: biotin-labelled)", "T24 construct": "also called mouse vimentin peptide", "T24 peptide": "YVT[Cit]SSAV[Cit]L[Cit]SSVP", "experiment": "ELISA, Ab 0.000128 ug/well", "experimental": "as §1, with “fibrinogen and vimentin” for “histone 2A”\nas §3"}}, "note": "Non-standard residues stand in square brackets, D forms with d. No end group written: not given here. Cit = NC(=O)NCCC[C@H](N)C(=O)O", "data": [{"binder": "RhmAb2.102 (antibody, human IgG1, lambda, Human IgG1 lambda; also called Rhm2.102) heavy: not shown light: QSVLTQPPSMSAAPGQKVTISCSGSSSNIGNNYVSWYQQVPGTAPKLLIYDDNKRPSGIPGRFSGSKSATSATLGITGLQAGDEADYYCGSWDDNLSVVLFGGGTKLTVLGQPKAAPSVTLFPPSSEELQANKATLVCLISDFYPGAVTVAWKADSSPVKAGVETTTPSKQSNNKYAASSYLSLTPEQWKSHRSYSCQVTHEGSTVEKTVAPTECS", "values": [{"measurement": "OD", "setting": "CFC-1 [1]", "result": 3.21, "unit": "OD450"}, {"measurement": "OD", "setting": "[2]", "result": 3.05, "unit": "OD450"}, {"measurement": "OD", "setting": "[3]", "result": 0.27, "unit": "OD450"}, {"measurement": "OD", "setting": "[4]", "result": 0.286, "unit": "OD450"}, {"measurement": "OD", "setting": "[5]", "result": 1.3, "unit": "OD450"}, {"measurement": "OD", "setting": "[6]", "result": 0.111, "unit": "OD450"}, {"measurement": "OD", "setting": "[7]", "result": 0.752, "unit": "OD450"}, {"measurement": "OD", "setting": "[8]", "result": 0.059, "unit": "OD450"}, {"measurement": "OD", "setting": "[9]", "result": 0.06, "unit": "OD450"}, {"measurement": "OD", "setting": "[10]", "result": 0.063, "unit": "OD450"}, {"measurement": "OD", "setting": "[11]", "result": 0.07, "unit": "OD450"}, {"measurement": "OD", "setting": "[12]", "result": 0.067, "unit": "OD450"}, {"measurement": "OD", "setting": "[13]", "result": 0.067, "unit": "OD450"}, {"measurement": "OD", "setting": "[14]", "result": 0.06, "unit": "OD450"}, {"measurement": "OD", "setting": "[15]", "result": 0.052, "unit": "OD450"}, {"measurement": "OD", "setting": "[16]", "result": 0.093, "unit": "OD450"}, {"measurement": "OD", "setting": "CFC-1 [17]", "result": 2.15, "unit": "OD450"}, {"measurement": "OD", "setting": "[18]", "result": 0.161, "unit": "OD450"}, {"measurement": "OD", "setting": "[19]", "result": 0.052, "unit": "OD450"}, {"measurement": "OD", "setting": "[20]", "result": 0.052, "unit": "OD450"}, {"measurement": "OD", "setting": "CFC-1 [21]", "result": 0.288, "unit": "OD450"}, {"measurement": "OD", "setting": "msFibα XH", "result": 0.089, "unit": "OD450"}, {"measurement": "OD", "setting": "msFibα XG", "result": 0.119, "unit": "OD450"}, {"measurement": "OD", "setting": "huFibα XH", "result": 0.12, "unit": "OD450"}, {"measurement": "OD", "setting": "huFibα XG", "result": 0.115, "unit": "OD450"}, {"measurement": "OD", "setting": "msFibβ XG", "result": 0.118, "unit": "OD450"}, {"measurement": "OD", "setting": "msVim XS/XL", "result": 0.133, "unit": "OD450"}]}]}
